Test results taken from patent US20130252887A1 (BETH ISRAEL DEACONESS MEDICAL CENTER, published 2013).

T1: Beta2-glycoprotein I (β2GPI), full-length, human (human, UniProt P02749 20-345)
T1 construct: mature; Two preparations of the same native protein were used, serum and purified from plasma; the assay field of each row says which; Where anti-β2GPI antibodies (Cedarlane CL20021HP, peroxidase-conjugated) were present, β2GPI stood as dimeric β2GPI/antibody complexes; also called B2GPI; β2GPI in normal human serum
T1 sequence (looked up): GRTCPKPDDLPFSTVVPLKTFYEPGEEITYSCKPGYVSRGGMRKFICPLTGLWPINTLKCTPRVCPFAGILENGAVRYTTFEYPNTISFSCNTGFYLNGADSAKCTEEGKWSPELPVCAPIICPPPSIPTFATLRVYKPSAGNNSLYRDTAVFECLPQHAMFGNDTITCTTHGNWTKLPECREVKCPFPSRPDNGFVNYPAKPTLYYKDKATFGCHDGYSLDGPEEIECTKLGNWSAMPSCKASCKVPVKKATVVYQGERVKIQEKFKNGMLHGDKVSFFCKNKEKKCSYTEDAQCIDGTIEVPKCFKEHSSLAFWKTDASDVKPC

T2: isolated recombinant domain V of β2GPI (residues 244-326) with N-terminal HA peptide tag (UniProt P02749 263-345)
T2 construct: range 244-326; Expressed in E. coli from pET15b with a His tag that was removed with TEV protease; The HA-tagged form was used in the cardiolipin assays, where it was detected or dimerized with anti-HA antibody Abcam ab1265; also called β2GPI-DV; individual domain V of β2GPI
T2 sequence: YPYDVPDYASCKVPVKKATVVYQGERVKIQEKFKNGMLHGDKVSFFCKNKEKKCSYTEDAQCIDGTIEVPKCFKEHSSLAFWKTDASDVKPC

B1: dimeric inhibitor A1-A1 (two A1 ligand-binding LA modules of ApoER2 connected by a Gly-Ser-Ser-Gly linker) (designed binder)
chain: AECEEDQFRCRNERCIPLVWRCDEDNDCSDNSDEDDCGSSGCEEDQFRCRNERCIPLVWRCDEDNDCSDNSDEDDCEA
B2: monomeric A1 (first LA module of mouse ApoER2, residues 12-47 of the mature protein) (receptor)
chain: not shown
notes: range 12-47; Residues 12-47 are counted on the mature protein, not the precursor; also called A1 module

Legend:
[1] = target: T1, Beta2-glycoprotein I (β2GPI), …; test: inhibition of binding of 10 nM β2GPI purified from plasma to a cardiolipin-coated plate, with anti-β2GPI antibodies present; OD405, one-site inhibition fit
Procedure: Next, we analyzed how A1-A1 and A1 inhibit the binding of purified β2GPI to cardiolipin. […] We used β2GPI purified from human plasma available from Haematologic Technologies, Inc. and analyzed the binding and inhibition of the binding of purified β2GPI by A1-A1 and A1 in the presence and in the absence of anti-β2GPI antibodies. […] We incubated 10 nM of β2GPI with various concentrations of the dimeric, A1-A1, and monomeric, A1, inhibitors in the presence of anti-β2GPI antibodies. […] In a separate experiment, we measured the inhibition of β2GPI in the presence of antibodies and compared the measured values to values predicted by the fit of the titration data (FIG. 4C). The measured values were close to those expected from the fit, additionally confirming that in the presence of anti-β2GPI antibodies a much lower concentration of A1-A1 was required to inhibit 50% of the binding of purified β2GPI to cardiolipin compared to A1. […] Similarly to what we observed for β2GPI in serum, the binding of purified β2GPI to cardiolipin in the presence of anti-β2GPI antibodies was inhibited more strongly by the dimeric inhibitor A1-A1 than by A1. Both, A1-A1 and A1, were ineffective in the inhibition of β2GPI in the absence of anti-β2GPI antibodies. […]

[2] = target: T2, isolated recombinant domain V of β2GPI …; test: inhibition of binding of 30 nM HA-tagged β2GPI-DV to a cardiolipin-coated plate, with anti-tag (anti-HA) antibody present (dimeric complexes); OD405, one-site fit
Procedure: As we observed for the inhibition of the binding of β2GPI in human serum and purified β2GPI to cardiolipin-coated surfaces, the isolated domain V was inhibited much stronger by the dimeric inhibitor A1-A1 compared to monomeric A1 in the presence of dimeric β2GPI-DV/anti-tag antibody complexes.
Cardiolipin-coated 96 well plates available as part of the ImmunoWELL cardiolipin IgG test kit (GenBio) were blocked with 0.5% of skim milk and 2% BSA in 20 mM Tris, 100 mM NaCl, 2 mM CaCl₂, pH 7.4. The assay buffer contained 20 mM Tris, 100 mM NaCl, 2 mM CaCl₂, pH 7.4 with 2% BSA and the wash buffer was 20 mM Tris, 100 mM NaCl, 2 mM CaCl₂, pH 7.4. When the purified β2GPI (Haematologic Technologies, Inc.) was used in experiments, 27 mM glycine was added to the assay buffer to account for glycine present in the stock solution of β2GPI. β2GPI bound to cardiolipin was detected with peroxidase-conjugated anti-β2GPI antibodies (Cedarlane, CL20021HP, 2 mg/ml) diluted 1:2500. […] The peroxidase activity of the bound antibodies was detected using 2-2′-azino-di-[3-ethylbenzthizzoline]sulfonate (ABTS) chromogenic reagent by measuring OD at 405 nm. […] The fits of the raw data and the titration data points were then normalized to the maximum binding determined from the fit to facilitate comparison. […]

[3] = target: T1, Beta2-glycoprotein I (β2GPI), …; test: inhibition of binding of β2GPI in 1% human serum to a cardiolipin-coated plate, without anti-β2GPI antibodies during binding (monomeric β2GPI); OD405, one-site fit
From the text: (§1) We compared the dimeric inhibitor, A1-A1, to monomeric A1 on the inhibition of binding of β2GPI/anti-β2GPI antibody complexes to cardiolipin. First, we used pooled normal human serum as a source of β2GPI. The majority of the β2GPI molecules in serum is in the circular form (Agar et al., Blood, 2010). To select the appropriate concentration of β2GPI for the inhibition studies, we measured the binding of β2GPI to cardiolipin (FIG. 2A). To create β2GPI/anti-β2GPI complexes, anti-β2GPI antibodies at constant concentration were added to β2GPI before the samples were applied to cardiolipin. […] We then compared the efficiency of A1-A1 and A1 for the inhibition of the binding of β2GPI in serum to cardiolipin in the presence of anti-β2GPI antibodies (FIG. 2B). 0.04% of human serum, which is in the linear region of the binding curve, was incubated on a cardiolipin-coated surface in the presence of anti-β2GPI antibodies and the inhibitors. In the presence of anti-β2GPI antibodies, the dimeric molecule, A1-A1, inhibited the binding to cardiolipin of β2GPI in serum much stronger than monomeric A1. […] Also, we measured how A1-A1 and A1 inhibited the binding of β2GPI in serum in the absence of anti-β2GPI antibodies (FIG. 3). A 1% solution of human serum was titrated with A1-A1 or A1 and β2GPI bound to cardiolipin was subsequently detected with anti-β2GPI antibodies. […]

[4] = target: T1, Beta2-glycoprotein I (β2GPI), …; test: inhibition of binding of β2GPI in 0.04% human serum to a cardiolipin-coated plate, with anti-β2GPI antibodies present (β2GPI/antibody complexes); OD405, one-site fit
From the text: as §1

[5] = target: T2, isolated recombinant domain V of β2GPI …; test: inhibition of binding of isolated HA-tagged β2GPI-DV to a cardiolipin-coated plate, without dimerization antibodies; OD405, one-site fit
Procedure: Cardiolipin-coated 96 well plates available as part of the ImmunoWELL cardiolipin IgG test kit (GenBio) were blocked with 0.5% of skim milk and 2% BSA in 20 mM Tris, 100 mM NaCl, 2 mM CaCl₂, pH 7.4. The assay buffer contained 20 mM Tris, 100 mM NaCl, 2 mM CaCl₂, pH 7.4 with 2% BSA and the wash buffer was 20 mM Tris, 100 mM NaCl, 2 mM CaCl₂, pH 7.4. When the purified β2GPI (Haematologic Technologies, Inc.) was used in experiments, 27 mM glycine was added to the assay buffer to account for glycine present in the stock solution of β2GPI. β2GPI bound to cardiolipin was detected with peroxidase-conjugated anti-β2GPI antibodies (Cedarlane, CL20021HP, 2 mg/ml) diluted 1:2500. […] The peroxidase activity of the bound antibodies was detected using 2-2′-azino-di-[3-ethylbenzthizzoline]sulfonate (ABTS) chromogenic reagent by measuring OD at 405 nm. […] The fits of the raw data and the titration data points were then normalized to the maximum binding determined from the fit to facilitate comparison.
For the inhibition studies, increasing concentrations of A1 or A1-A1 were added to a constant amount of β2GPI ([…]), normal human serum (1%) or β2GPI-DV (130 nM) and incubated for 1 hour at room temperature. […] Then, samples were incubated on wells for an additional 1 hour and, after washing, the bound β2GPI/anti-β2GPI or β2GPI-DV/anti-tag antibody complexes were detected.

Binder | IC50 [1] | IC50 [2] | IC50 [3] | IC50 [4] | IC50 [5]
B1 | 26 µM | 12 µM | 189 µM | 10 µM | 
B2 | 191 µM | 204 µM | 176 µM | 218 µM | 188 µM
